Patent publication US20030064482A1
Values belong to the substance of their own block, whether it stands above or below them.

Assays:
GIT mucin [1] = test: specificity/enzyme activity assay, GIT mucin-coated plate (negative control), substrate in PBS pH 7.2; supernatant diluted 1:64
GIT mucin [2] = test: specificity/enzyme activity assay, GIT mucin-coated plate (negative control), substrate in PBS pH 7.2; supernatant diluted 1:32
[3] = target: CEA (carcinoembryonic antigen) (UniProt P06731); test: specificity/enzyme activity assay, CEA-coated plate, substrate in 0.2 M sodium acetate buffer + 0.01% BSA pH 5; supernatant concentrated
GIT mucin [4] = test: specificity/enzyme activity assay, GIT mucin-coated plate (negative control), substrate in PBS pH 7.2; supernatant diluted 1:16
[5] = target: CEA (carcinoembryonic antigen) (UniProt P06731); test: specificity/enzyme activity assay, CEA-coated plate, substrate in PBS pH 7.2; supernatant diluted 1:128
GIT mucin [6] = test: specificity/enzyme activity assay, GIT mucin-coated plate (negative control), substrate in PBS pH 7.2; supernatant diluted 1:8
[7] = target: CEA (carcinoembryonic antigen) (UniProt P06731); test: specificity/enzyme activity assay, CEA-coated plate, substrate in PBS pH 7.2; supernatant diluted 1:8
[8] = target: CEA (carcinoembryonic antigen) (UniProt P06731); test: specificity/enzyme activity assay, CEA-coated plate, substrate in 0.2 M sodium acetate buffer + 0.01% BSA pH 5; supernatant diluted 1:8
[9] = target: CEA (carcinoembryonic antigen) (UniProt P06731); test: specificity/enzyme activity assay, CEA-coated plate, substrate in 0.2 M sodium acetate buffer + 0.01% BSA pH 5; supernatant diluted 1:64
[10] = target: CEA (carcinoembryonic antigen) (UniProt P06731); test: specificity/enzyme activity assay, CEA-coated plate, substrate in PBS pH 7.2; supernatant diluted 1:2
[11] = target: CEA (carcinoembryonic antigen) (UniProt P06731); test: specificity/enzyme activity assay, CEA-coated plate, substrate in PBS pH 7.2; supernatant diluted 1:64
[12] = target: CEA (carcinoembryonic antigen) (UniProt P06731); test: specificity/enzyme activity assay, CEA-coated plate, substrate in 0.2 M sodium acetate buffer + 0.01% BSA pH 5; supernatant diluted 1:32
[13] = target: CEA (carcinoembryonic antigen) (UniProt P06731); test: specificity/enzyme activity assay, CEA-coated plate, substrate in PBS pH 7.2; supernatant concentrated
GIT mucin [14] = test: specificity/enzyme activity assay, GIT mucin-coated plate (negative control), substrate in PBS pH 7.2; supernatant concentrated
[15] = target: CEA (carcinoembryonic antigen) (UniProt P06731); test: specificity/enzyme activity assay, CEA-coated plate, substrate in 0.2 M sodium acetate buffer + 0.01% BSA pH 5; supernatant diluted 1:16
GIT mucin [16] = test: specificity/enzyme activity assay, GIT mucin-coated plate (negative control), substrate in PBS pH 7.2; supernatant diluted 1:2
[17] = target: CEA (carcinoembryonic antigen) (UniProt P06731); test: specificity/enzyme activity assay, CEA-coated plate, substrate in PBS pH 7.2; supernatant diluted 1:16
[18] = target: CEA (carcinoembryonic antigen) (UniProt P06731); test: specificity/enzyme activity assay, CEA-coated plate, substrate in 0.2 M sodium acetate buffer + 0.01% BSA pH 5; supernatant diluted 1:128
[19] = target: CEA (carcinoembryonic antigen) (UniProt P06731); test: specificity/enzyme activity assay, CEA-coated plate, substrate in PBS pH 7.2; supernatant diluted 1:32
[20] = target: CEA (carcinoembryonic antigen) (UniProt P06731); test: specificity/enzyme activity assay, CEA-coated plate, substrate in 0.2 M sodium acetate buffer + 0.01% BSA pH 5; supernatant diluted 1:4
[21] = target: CEA (carcinoembryonic antigen) (UniProt P06731); test: specificity/enzyme activity assay, CEA-coated plate, substrate in PBS pH 7.2; supernatant diluted 1:4
[22] = target: CEA (carcinoembryonic antigen) (UniProt P06731); test: specificity/enzyme activity assay, CEA-coated plate, substrate in 0.2 M sodium acetate buffer + 0.01% BSA pH 5; supernatant diluted 1:2
[23] = target: CEA (carcinoembryonic antigen) (UniProt P06731); test: competitive ELISA on CEA-coated plates; competitor murine MAb BW 431/26 at 5 ng/ml, detected with goat anti-mouse Ig-alkaline phosphatase
GIT mucin [24] = test: specificity/enzyme activity assay, GIT mucin-coated plate (negative control), substrate in PBS pH 7.2; supernatant diluted 1:4
GIT mucin [25] = test: specificity/enzyme activity assay, GIT mucin-coated plate (negative control), substrate in PBS pH 7.2; supernatant diluted 1:128

Sequence of UniProt P06731 (P06731 35-685 limits assumed): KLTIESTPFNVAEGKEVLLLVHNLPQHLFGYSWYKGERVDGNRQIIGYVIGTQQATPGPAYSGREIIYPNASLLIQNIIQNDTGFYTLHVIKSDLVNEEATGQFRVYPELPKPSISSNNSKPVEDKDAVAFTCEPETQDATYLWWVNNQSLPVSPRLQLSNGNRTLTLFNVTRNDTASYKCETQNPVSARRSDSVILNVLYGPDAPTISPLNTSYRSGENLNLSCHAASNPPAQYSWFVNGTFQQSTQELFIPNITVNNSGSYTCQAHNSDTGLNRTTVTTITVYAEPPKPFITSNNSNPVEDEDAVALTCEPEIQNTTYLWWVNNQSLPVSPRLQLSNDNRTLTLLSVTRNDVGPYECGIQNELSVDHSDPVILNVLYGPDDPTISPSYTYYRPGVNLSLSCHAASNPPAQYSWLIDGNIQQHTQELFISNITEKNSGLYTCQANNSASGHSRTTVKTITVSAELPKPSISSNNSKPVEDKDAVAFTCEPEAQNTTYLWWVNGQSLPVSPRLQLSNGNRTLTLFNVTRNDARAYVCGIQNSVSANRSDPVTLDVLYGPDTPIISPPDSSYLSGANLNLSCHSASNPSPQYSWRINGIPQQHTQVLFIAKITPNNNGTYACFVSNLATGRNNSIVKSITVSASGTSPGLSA

fluorescence of 4-methylumbelliferol liberated by plate-bound fusion protein (GIT mucin [1]): 48.2
fluorescence of 4-methylumbelliferol liberated by plate-bound fusion protein (GIT mucin [2]): 40.4
fluorescence of 4-methylumbelliferol liberated by plate-bound fusion protein [3]: 9120
fluorescence of 4-methylumbelliferol liberated by plate-bound fusion protein (GIT mucin [4]): 53.7
fluorescence of 4-methylumbelliferol liberated by plate-bound fusion protein [5]: 57.9
fluorescence of 4-methylumbelliferol liberated by plate-bound fusion protein (GIT mucin [6]): 60.7
fluorescence of 4-methylumbelliferol liberated by plate-bound fusion protein [7]: 618
fluorescence of 4-methylumbelliferol liberated by plate-bound fusion protein [8]: 2930
fluorescence of 4-methylumbelliferol liberated by plate-bound fusion protein [9]: 425
fluorescence of 4-methylumbelliferol liberated by plate-bound fusion protein [10]: 2140
fluorescence of 4-methylumbelliferol liberated by plate-bound fusion protein [11]: 99.3
fluorescence of 4-methylumbelliferol liberated by plate-bound fusion protein [12]: 853
fluorescence of 4-methylumbelliferol liberated by plate-bound fusion protein [13]: 2720
fluorescence of 4-methylumbelliferol liberated by plate-bound fusion protein (GIT mucin [14]): 116
fluorescence of 4-methylumbelliferol liberated by plate-bound fusion protein [15]: 1660
fluorescence of 4-methylumbelliferol liberated by plate-bound fusion protein (GIT mucin [16]): 93.4
fluorescence of 4-methylumbelliferol liberated by plate-bound fusion protein [17]: 332
fluorescence of 4-methylumbelliferol liberated by plate-bound fusion protein [18]: 192
fluorescence of 4-methylumbelliferol liberated by plate-bound fusion protein [19]: 168
fluorescence of 4-methylumbelliferol liberated by plate-bound fusion protein [20]: 4660
fluorescence of 4-methylumbelliferol liberated by plate-bound fusion protein [21]: 1200
fluorescence of 4-methylumbelliferol liberated by plate-bound fusion protein [22]: 7680
molar excess of competitor at 50% inhibition [23]: 200 molar excess
fluorescence of 4-methylumbelliferol liberated by plate-bound fusion protein (GIT mucin [24]): 73.4
fluorescence of 4-methylumbelliferol liberated by plate-bound fusion protein (GIT mucin [25]): 47.5
Substance: 431/26 hum VH huβGlc 1H fusion protein (from UniProt P01860 1-98; P01860 99-115; P08236 23-651)

molar excess of competitor at 50% inhibition [23]: 200 molar excess
Substance: humanized MAb BW 431/26 (antibody)
